Laboratory results as given in patent publication US20020199219A1 (UNIVERSITY OF CALIFORNIA SAN DIEGO, published 2002).

Biological target: T1, ABH1 polypeptide (Arabidopsis thaliana, UniProt Q9SIU2 1-848)
T1 construct: Tested in a yeast two-hybrid experiment and expressed in yeast cells; also called Arabidopsis CBP80 homolog
T1 sequence: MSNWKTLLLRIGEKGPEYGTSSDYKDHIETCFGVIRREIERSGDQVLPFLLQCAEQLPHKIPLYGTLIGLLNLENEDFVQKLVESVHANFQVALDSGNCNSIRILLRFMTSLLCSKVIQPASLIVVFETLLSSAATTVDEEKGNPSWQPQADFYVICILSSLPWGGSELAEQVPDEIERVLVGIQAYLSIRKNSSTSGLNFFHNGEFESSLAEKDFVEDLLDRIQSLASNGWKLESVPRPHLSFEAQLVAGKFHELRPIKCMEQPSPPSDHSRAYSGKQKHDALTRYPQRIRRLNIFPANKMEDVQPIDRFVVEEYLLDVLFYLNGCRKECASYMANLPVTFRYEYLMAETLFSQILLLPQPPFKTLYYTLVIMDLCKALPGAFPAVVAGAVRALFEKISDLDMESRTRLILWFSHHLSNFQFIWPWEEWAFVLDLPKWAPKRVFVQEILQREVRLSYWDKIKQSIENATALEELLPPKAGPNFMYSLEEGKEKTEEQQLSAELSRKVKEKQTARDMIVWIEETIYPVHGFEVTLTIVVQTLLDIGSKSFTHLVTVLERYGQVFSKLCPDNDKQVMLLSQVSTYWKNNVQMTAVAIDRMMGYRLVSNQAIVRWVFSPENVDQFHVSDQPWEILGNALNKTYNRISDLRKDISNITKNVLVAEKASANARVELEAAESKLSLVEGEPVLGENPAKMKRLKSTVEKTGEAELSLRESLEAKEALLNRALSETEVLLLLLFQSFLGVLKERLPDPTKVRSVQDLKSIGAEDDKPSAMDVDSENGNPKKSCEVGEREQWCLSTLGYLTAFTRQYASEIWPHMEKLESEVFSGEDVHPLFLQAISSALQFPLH
Assay: yeast two-hybrid

binding result: binds
B1: Arabidopsis CBP20 homolog (AtCBP20) (other, UniProt Q9XFD1 1-257, looked up)
chain: MASLFKEQAKLSAYRDRRFSGTQEEFDEALRASTTVYIGNVSFYTTEEQLYELFSRAGEIKKIIMGLDKNTKTPCGFCFVLFYSREDTEDAVKYISGTILDDRPIRVDFDWGFQEGRQWGRGRSGGQVRDEYRTDYDPARGGYGKLVQKELEAQRQLVDYGTGSLGAYPQAAPTNYGNGRRGGGNYGQGGQNRHGRGDYHRKRQRDDDRYGRDNSRRNTDHESRRDTDSDMRPEKNPRFRESGDSDDDGEDDRKRRS
notes: The limits of the construct and the two-hybrid fusion domains are not described
